Results from US20250283065A1, “TRUNCATED POLYPEPTIDES HAVING PROTEIN LIGASE ACTIVITY AND METHODS OF PRODUCTION THEREOF” (NANYANG TECHNOLOGICAL UNIVERSITY, priority 2022, published 2025).

B1: OaAEP1b-C247A-Δ351 with His-tag and TEV cleavage sequence (construct for recombinant expression) (protein)
chain: MHHHHHHSSGVDLGTENLYFQSVGTRWAVLIAGSKGYANYRHQAGVCHAYQILKRGGLKDENIVVFMYDDIAYNESNPRPGVIINSPHGSDVYAGVPKDYTGEEVNAKNFLAAILGNKSAITGGSGKVVDSGPNDHIFIYYTDHGAAGVIGMPSKPYLYADELNDALKKKHASGTYKSLVFYLEACESGSMFEGILPEDLNIYALTSTNTTESSWCYYCPAQENPPPPEYNVCLGDLFSVAWLEDSDVQNSWYETLNQQYHHVDKRISHASHATQYGNLKLGEEGLFVYMGSNPANDNYTSLDGNALTPSSIVVNQRDAD
B2: acid-activated OaAEP1b-C247A (protein)
chain: MVRYLAGAVLLLVVLSVAAAVSGARDGDYLHLPSEVSRFFRPQETNDDHGEDSVGTRWAVLIAGSKGYANYRHQAGVCHAYQILKRGGLKDENIVVFMYDDIAYNESNPRPGVIINSPHGSDVYAGVPKDYTGEEVNAKNFLAAILGNKSAITGGSGKVVDSGPNDHIFIYYTDHGAAGVIGMPSKPYLYADELNDALKKKHASGTYKSLVFYLEACESGSMFEGILPEDLNIYALTSTNTTESSWAYYCPAQENPPPPEYNVCLGDLFSVAWLEDSDVQNSWYETLNQQYHHVDKRISHASHATQYGNLKLGEEGLFVYMGSNPANDNYTSLDGNALTPSSIVVNQRDADLLHLWEKFRKAPEGSARKEEAQTQIFKAMSHRVHIDSSIKLIGKLLFGIEKCTEILNAVRPAGQPLVDDWACLRSLVGTFETHCGSLSEYGMRHTRTIANICNAGISEEQMAEAASQACASIP
B3: acid-activated OaAEP1b-C247A: full-length OaAEP1b-C247A proenzyme expressed in E. coli and activated at low pH according to reference [17] (protein, listed as Oldenlandia affinis)
chain: B2 chain
modifications: acid-activated

Tests used:
OaAEP1b-C247A-Δ351 = assay: Active site titration by FRET ligation assay with covalent inhibitor; assay type: biochemical, Oldenlandia affinis; conditions: enzyme 280 nM, 1 hour incubation
Procedure: Active site titration: The procedure described in reference was followed. The enzyme preparation was diluted to a concentration of 280 nM using a buffer containing 20 mM sodium phosphate at pH 6.5, 5 mM 2-Mercaptoethanol. Solutions containing serial twofold dilution of inhibitor YVAD-cmk were prepared in a black microtiter plate (Greiner Bio-One) using buffer as diluent. The enzyme was subsequently added to the wells containing the inhibitor to a final volume of 50 μL. The plate was incubated for 1 hour at room temperature before adding FRET peptides (PIE {EDANS} YNAL (SEQ ID NO:18) and GIK {DABSYL} SIP (SEQ ID NO: 19)), which were mixed at a molar ratio of 1:3 giving a final enzyme: substrate molar ratio of 1:200. The EDANS fluorescence signal was measured with an excitation wavelength of 336 nm and an emission wavelength of 490 nm. Relative fluorescence units (RFU) of quenched EDANS signal were plotted against time. The value of the initial velocity (Vi) was determined from the slope of the RFU (t) curve. The measured value of Vi was subsequently normalized by dividing with the initial rate obtained in the absence of inhibitor (control V0). The calculated Vi/V0 ratio was plotted against inhibitor concentrations, generating an inhibition curve. […]

[1] = molecular target: OaAEP1b-C247A-Δ351 with His-tag and TEV cleavage sequence (construct for recombinant expression) (Oldenlandia affinis); assay: cell-based or functional assay
[2] = molecular target: mixture of FRET peptides A: PIE{EDANS}YNAL and B: GIK{DABSYL}SIP at a molar ratio of 1:3
[3] = system: peptides PIE {EDANS} YNAL and GIK {DABSYL} SIP; assay: FRET ligation kinetics assay; assay type: biochemical; conditions: 50 nM enzyme, peptides A:B molar ratio 1:3
Procedure: Kinetics assay: The kinetic properties of the peptide ligation of the constitutively active PAL were studied using a FRET assay. Two peptides synthesized by GenScript: PIE {EDANS} YNAL (SEQ ID NO:18) and GIK {DABSYL} SIP (SEQ ID NO:19) were mixed at a molar ratio of 1:3. Upon ligation, the peptide PIE {EDANS} YNGIK {DABSYL} SIP (SEQ ID NO: 20) is produced. 50 nM of PAL enzyme is mixed with various concentrations of the peptide mixture. The EDANS fluorescence signal was measured with an excitation wavelength of 336 nm and an emission wavelength of 490 nm. A reduction in EDANS fluorescence signal occurs upon ligation of the two peptides due to quenching by DABSYL. The variation in fluorescence signal for each substrate mixture concentration was measured after addition of the enzyme to initiate the reaction. The rate of decrease in fluorescence signal during the first 30 seconds after enzyme addition was plotted against the substrate concentration to obtain the Vmax, kcat and KM values for each enzyme.
Next, using a FRET ligation assay, the ligase activity of the truncated OaAEP1b-C247A-Δ351 was compared with its acid-activated zymogen counterpart. Briefly, 50 nM of either enzyme was added to a mixture of two peptides A: PIE (EDANS) YNAL (SEQ ID NO:18) and B: GIK (DABSYL) SIP (SEQ ID NO:19). These two peptides were mixed in a A:B molar ratio of 1:3. Upon ligation, the fluorescence signal emission of the EDANS moiety of A (λem=490 nm) becomes quenched by the DABSYL moiety of B. (FIG. 7A). This assay the ligation rate to be followed between both peptides in real-time, giving access to the kinetic parameters of the truncated enzyme.

Molecule | Km (FRET ligation assay) [2] [µM] | Vmax (FRET ligation assay) [2] [RFU/see] | other results
ac-YVAD-cmk [reference compound] |  |  | minimal concentration of inhibitor necessary for a complete inhibition of the ligation activity (OaAEP1b-C247A-Δ351): 150 nM
YVAD (N-terminal acetyl; C-terminal chloromethylketone (cmk)) [Ac-YVAD-cmk] |  |  | fraction of the measured protein concentration that is active and amenable to complete inhibition (active site titration) [1]: 53%; minimal concentration of inhibitor necessary for a complete inhibition of the ligation activity (active site titration, enzyme at 280 nM) [1]: 150 nM
B1 | 8.16 | 6.40 | 
B2 | 8.34 | 14.32 | 
B3 |  |  | Vmax [3]: 14.32 RFU/see
